The text below walks through data of the nanobody polyreactivity screen of Harvey et al. (2022).

A short description of the data set: yeast display, Sf9 membrane polyspecificity reagent, FACS + sequencing; frameworks hold sequencing errors. In outline: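 After 36–48 hours of galactose induction, yeast (Saccharomyces cerevisiae BJ5465) displaying a synthetic nanobody library were stained at 4 °C for 1 hour with 10% biotinylated, detergent-solubilized Sf9 membrane reagent. Streptavidin microbeads enriched the stained cells before FACS sorting into low and high (top ~1%) gates on anti-HA and streptavidin fluorescence. Each clone's polyreactivity label reflects its gate of origin.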
In the case of “QVQVVESGGGLVQEGGSHRISCAASGRIFFTNAMGWSRQAPGKERELVAAINDVGSTYYADSVKGRFTISRDNAKNTVYLQLNSLKAEDTAVYYCAVQAYGRGRSLKMYYWRQGTQVTVSS”, the “polyreactivity (PSR sort gate)” value is “high polyreactivity”.

On to “QVQVVESVGGLVQAGGILRLSCAASGRTFRGNAMGWYRQAPGKERELVAAISSSGARTYYADSVKGRFTISRDNAKNTVYLQMNSLKPEDTAVYYCAAVYTDGALQGYDYWGQGTQVTVSS”, for which the “polyreactivity (PSR sort gate)” value is listed as “low polyreactivity”.

In the case of “QVRLVESGGGLDQAGGSLRLSSAASGRIFNRNAMGWYRQAPGKARELVAAINRGGSTNYADSVKGRFTISRDNAKNTVYLQLNRLKPEDTAVYYCAAELLYATLWRRYSGYYYWGQGTQVTVSS”, the “polyreactivity (PSR sort gate)” value is on record as “high polyreactivity”.

In the case of “QVRLVESGGGLGQAGGSLRLSCAASGPIFDTNAMGWYRQAPGKERELVAAISYIGGGTYYADSVKGRFTISRDNAKNTVYLQMNSLKPEDTAVYYCAAEQIYVFFGDWMEYWGQGTQVTVSS”, the “polyreactivity (PSR sort gate)” value is “low polyreactivity”.

With “QVRLVESGGGLVQAGGSLRLSCAASGRIFQYYSMGWYRQAPGKERELVASITSGGGSTYYADSVKGRFTISRDNAKNTVYLQMNSLKPEDTAVYYCNARWYGLSTRYDYWGQGTQVTVSS”, the “polyreactivity (PSR sort gate)” value was “low polyreactivity”.

For the sequence “QVRLVESGGGLVQAGGSLRLSCAASGSIFQYYVMGWYRQAPGKERELVAAISRNGGRTYYADSVKGRFTISRDNAKNTVYLQMNSLKPEDTAVYYCAADSIPHRDNYWGQGTQVTVSS”, the “polyreactivity (PSR sort gate)” value is recorded as “high polyreactivity”.

As for “QVRLVESGGGLVQAGGSLRLSCAASGSTFPYYDMGWYRQAPGKERELVAAITWSSGSTYYADSVKGRFTISRDNAKNTVYLQMNSLKPEDTAVYYCAAELYSYREDYGAHYAYEYWGQGTQVTVSS”, the “polyreactivity (PSR sort gate)” value is given as “low polyreactivity”.

Consider “QVRLVESGGGLVQAGGSLRLSCAASGSTFVYYAMGRYRQAPGNERELVAAITSGDSTYYADSVKGRFTISRDNAKNTVYLQMNSLKPEDTAVYYCAKRISYLPVEMDYWGQGTQVSVSS”, for which the “polyreactivity (PSR sort gate)” value is recorded as “low polyreactivity”.

In the case of “QYQLVESGGGLVQAGGRLRLSCAASGSIFSNYAMGWYRQAPGKERQFVAAISGGGGSTYYADSVKGRFTISRDNANNTVYLQMNSLKPEDTAVYYCARVRYYGALKLYAYDHWGQGTQVTVSS”, the “polyreactivity (PSR sort gate)” value is “high polyreactivity”.

With “RVQLPESGGGLVQAGGSLRLTCAASGTIFIRGDMGWYRQSPGKEREFVATIDTGSNTYYADSEKGRFTISRDNAKNAVYLQMNCLKPGDTAVYYCVVDYQLSGRLRYWGQGTQVTLSS”, the “polyreactivity (PSR sort gate)” value is reported as “low polyreactivity”.

Turning to “RVQLQESGGGLVQAGGSLRLSCAASGTIFIRGDMGWYRQAPGKEREFVATIDTGSNTYNADSEKGRFTISRDNAKNAVYLQMNCLKPGDTAVYYCVVDYQLSGRLRYWGQGTQVTLSS”, the “polyreactivity (PSR sort gate)” value is “low polyreactivity”.

As to “RVQLVESAGGLLQAGGSLRLSCAASGRTFTLYAMGWDRQAPGKDRELVAAIRWSGSSTYYADSVKGRFTISRDYAKHTVYLQINSLKPEATAVYYCAARAGRYERYGYWGQGTQVTVSS”, the “polyreactivity (PSR sort gate)” value was “high polyreactivity”.

With “RVQLVESGGGLVQAGGSLRLSCAASGLIFYYNAMVWYRQAPGKERELVAAISTGGSTNYADSVKGRFTISRYNAKNTVYLQMNSLKPEDTAVYYCAAGTRKPYGYKMYYWGQGTQVTVSS”, the “polyreactivity (PSR sort gate)” value is “high polyreactivity”.

With “RVQLVESGGGLVQAGGSLRLSCAASGSISQGNAMGWYRQAPGKERELVADIRWTSGRTYYADSVKGRFTISRDNAKNTVYLQMNSLKPEDTAVYYCAAYYVYYTPTLIDRDYWGQGNQVTVSS”, the “polyreactivity (PSR sort gate)” value is listed as “low polyreactivity”.

As to “VQLVESGGGLVQAGGSLRLSCAASGRIFSNNAMGWYRQAPGKEREFVAAITTSAGRTYYADSVKGRFTISRDNAKNTVYLQMNSLKPEDTAVYYCAAEPRQYWEYNYWGQGTQVTVSS”, the “polyreactivity (PSR sort gate)” value is given as “high polyreactivity”.
